Where a chain is given by its changes, count along the chain named. Entries after “also recorded” stand apart in the source; their conditions may differ.
B1: SA51D12: variant-specific anti-IC antibody, MC-LR (antibody, V domains shown)
VH: EVQLLESGGGLVQPGGSLRLSCAASGFTFSSDVMHWVRQAPGKGLEWVSVISGYDGYTRYADSVKGRFTISRDNSKNTLYLQMNSLRAEDTAVYYCARGVPYLYGAYSFDYWGQGTLVTVSS
VL: EIVLTQSPGTLSLSPGERATLSCRASQSVSSSNLAWYQQKPGQAPRLLIYGASSRATGVPDRFSGSGSGTDFTLTISRLEPEDFAVYYCQQSSTPWTFGQGTKVEIKRT
modifications: Clone SA51D12; DOMAIN (31)..(35) CDR1; DOMAIN (50)..(66) CDR2; DOMAIN (99)..(111) CDR3; DOMAIN (24)..(35) CDR1; DOMAIN (51)..(57) CDR2; DOMAIN (90)..(98) CDR3
B2: SA52B4: XR subgroup-specific anti-IC antibody (antibody, V domains shown)
VH: EVQLLESGGGLVQPGGSLRLSCAASGFTFSDYSMHWVRQAPGKGLEWVSEIWTNTGYTNYADSVKGRFTISRDNSKNTLYLQMNSLRAEDTAVYYCARESWEWFSIVFDYWGQGTLVTVSS
VL: EIVLTQSPGTLSLSPGERATLSCRASQSVSSSALAWYQQKPGQAPRLLIYGASSRATGVPDRFSGSGSGTDFTLTISRLEPEDFAVYYCQQYSSTPWTFGQGTKVEIKRT
modifications: Clone SA52B4; DISULFID (31)..(35) CDR1; DISULFID (50)..(66) CDR2; DISULFID (99)..(110) CDR3; DOMAIN (24)..(35) CDR1; DOMAIN (51)..(57) CDR2; DOMAIN (90)..(98) CDR3
B3: SA59G2: variant-specific anti-IC antibody, MC-LR (antibody, V domains shown)
VH: EVQLLESGGGLVQPGGSLRLSCAASGFTFSNYYMHWVRQAPGKGLEWVSYIDPVGGETYYADSVKGRFTISRDNSKNTLYLQMNSLRAEDTAVYYCARYYYWGYRAFDYWGQGTLVTVSS
VL: B2 VL with Y92S, T95L
modifications: Clone SA59G2; DOMAIN (31)..(35) CDR1; DOMAIN (51)..(66) CDR2; DOMAIN (99)..(109) CDR3; DOMAIN (24)..(35) CDR1; DOMAIN (51)..(57) CDR2; DOMAIN (90)..(98) CDR3
B4: SA33D5: XR subgroup-specific anti-IC antibody (antibody, V domains shown)
VH: EVQLLESGGGLVQPGGSLRLSCAASGFTFSSDVMHWVRQAPGKGLEWVSEIDPNDGSTRYADSVKGRFTISRDNSKNTLYLQMNSLRAEDTAVYYCAREYGAVSWSVVVFDYWGQGTLVTVSS
VL: B2 VL with A33N, Y92S, T95Y
modifications: Clone SA33D5; DOMAIN (31)..(35) CDR1; DOMAIN (50)..(66) CDR2; DOMAIN (99)..(112) CDR3; DOMAIN (24)..(35) CDR1; DOMAIN (51)..(57) CDR2; DOMAIN (90)..(98) CDR3
B5: SA56E7: variant-specific anti-IC antibody, MC-LR (antibody, V domains shown)
VH: EVQLLESGGGLVQPGGSLRLSCAASGFTFSRYYMHWVRQAPGKGLEWVSYIWPVDGETDYADSVKGRFTISRDNSKNTLYLQMNSLRAEDTAVYYCARYVYGNSVGRVFDYWGQGTLVTVSS
VL: B2 VL with A33N, Y92S, S93Y, T95Y
modifications: Clone SA56E7; DOMAIN (31)..(35) CDR1; DOMAIN (50)..(66) CDR2; DOMAIN (99)..(111) CDR3; DOMAIN (24)..(35) CDR1; DOMAIN (51)..(57) CDR2; DOMAIN (90)..(98) CDR3

test system: immunocomplexes of CCPH variants and anti-Adda mAb; assay: Screening and cross-reactivity studies of anti-IC scFv-AP binders, specificity class; assay type: binding

Molecule	Specificity of anti-IC antibody (CCPH immunocomplexes recognized)
B1	recognize immunocomplexes comprising MC-LR; also recorded: MC-LR and MC-LZ specific
B2	specific for a subgroup XR
B3	recognize immunocomplexes comprising MC-LR
B4	specific for a subgroup XR
B5	recognize immunocomplexes comprising MC-LR
